The target in test [1] is SARS-CoV-2 Spike trimer (Table A) (SARS-CoV-2, UniProt P0DTC2 14-1208). Kind of test: ELISA, purified IgG. For orientation: ELISA stands for enzyme-linked immunosorbent assay.
The target in test [2] is T1, SARS-CoV-2 prefusion-stabilized trimeric spike ectodomain (S2Pecto) (SARS-CoV-2, UniProt P0DTC2 14-1213; P10104 458-484). Kind of test: ELISA on coated antigen.
Test [3] deals with T1, SARS-CoV-2 prefusion-stabilized …. The experiment in a line: hACE2 blocking ELISA on coated S2Pecto; competitor hACE2.

B1: COV2-2514 (antibody, V domains shown)
VH: EVQLVESGGGVVRPGGSLRLSCAASGFIFDDYDMTWVRQAPGKGLEWVSGINWNGGSTGYADSVKGRFTISRDNAKNSLYLQMNSLRAEDTALYHCAVIMSPIPRYSGYDWAGDAFDIWGQGTMVTVSS
VL: SSELTQDPAVSVALGQTVRITCQGDSLRSYYASWYQQKPGQVPILVIYDKNNRPSGIPDRFSGSSSGNTASLTITGAQAEDEADYYCNSRDSSGNAVVFGGGTKLTVL
Take B1: the “ELISA OD 450 nm” value in test [1] was 3.56 OD 450 nm.

B2: COV2-2094 (antibody, V domains shown)
VH: EVQLVESGGGVVRPGGSLRLSCAASGFIFDDYDMTWVRQAPGKGLEWVSGINWNGGSTGYADSVKGRFTISRDNAKNSLYLQMNSLRAEDTALYHCAVIMSPIPRYSGYDWAGDAFDIWGQGTMVTVSS
VL: SSELTQDPAVSVALGQTVRITCQGDSLRSYYASWYQQKPGQVPILVIYDKNNRPSGIPDRFSGSSSGNTASLTITGAQAEDEADYYCNSRDSSGNAVVFGGGTKLTVL
The EC50 is the midpoint of the concentration-response curve. Read a low EC50 as an effect from little substance. One may read the IC50 as the midpoint of a concentration-inhibition curve. With B2, the “ELISA OD 450 nm” value in test [1] came out at 4.3 OD 450 nm. This molecule also displayed an EC50 in test [2] of 0.0018 µg/mL. The half-inhibitory concentration (IC50) in test [3] was 0.053 µg/mL.

B3: COV2-3025 (antibody, V domains shown)
VH: EVQLVQSGPEVKKPGTSVKVSCKASGFTFMSSAVQWVRQARGQRLEWIGWIVIGSGNTNYAQKFQERVTITRDMSTSTAYMELSSLRSEDTAVYYCAAPYCSSISCNDGFDIWGQGTMVTVSS
VL: EIVLTQSPGTLSLSPGERVTLSCRASQSVSSSYLAWYQQKPGQAPRLLIYGASSRATGIPDRFSGSGSGTDFTLTISRLEPEDFAVYYCQHYGSSRGWTFGQGTKVEIK
In the case of B3, the “ELISA OD 450 nm” value in test [1] came out at 3.7 OD 450 nm. For the same molecule, in test [2], the EC50 was found to be 0.0011 µg/mL. This molecule returned an IC50 in test [3] of 0.041 µg/mL.
